Where two headings read alike, the source gives them in different places. Blank lines part the entries; values can stand above or below the molecule they belong to.
Key:
[1] = molecular target: T1, OAP1 (recombinant, 6xHis-tag removed) (Arabidopsis thaliana, UniProt F4K9I8 1-303); assay: SEC; OPNR-OAP1-OAP2 complex after removal of the 6xHis-tag; Superdex200 16/600
T1 construct: OPENER ASSOCIATED PROTEIN 1 (OAP1), Arabidopsis thaliana, AT5G07950; printed molecular weight 34 kDa; not shown: 6xHis, N-terminal, cleaved
T1 sequence (looked up): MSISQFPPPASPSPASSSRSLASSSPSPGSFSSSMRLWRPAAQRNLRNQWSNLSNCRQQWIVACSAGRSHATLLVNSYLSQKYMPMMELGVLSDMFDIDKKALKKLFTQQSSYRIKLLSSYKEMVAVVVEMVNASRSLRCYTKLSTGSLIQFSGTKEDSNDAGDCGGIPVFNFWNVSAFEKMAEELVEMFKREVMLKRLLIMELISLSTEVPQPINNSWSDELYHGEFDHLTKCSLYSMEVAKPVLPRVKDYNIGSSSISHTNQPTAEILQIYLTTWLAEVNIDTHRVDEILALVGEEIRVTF

[2] = molecular target: 6xHis-OAP1 (Arabidopsis thaliana); assay: co-purification of co-expressed proteins (Ni-NTA); 6xHis-OAP1, OAP2 and OPNR expressed together in E. coli BL21(DE3), purified on Ni-NTA resin by the His tag of OAP1; molar ratio from the gel

stoichiometry N [1]: 1 | stoichiometry N [2]: 1
Molecule: OAP2 (recombinant) (natural protein)

stoichiometry N ([1]; both partners purified): 1 | stoichiometry N [2]: 1
B1: OPNR (recombinant) (natural protein, Arabidopsis thaliana, UniProt Q6NPG7 1-195, looked up)
chain: MEAVIRKWQQKFRKGKEEMEKWEALQVRWVSLFRNASSIIQRLQEMQNHGSYGALRCLKGIEDAVVQQQMGQLESLLRSMKNVMEEFWGCVLTFEKLHRDGLQLREIESSKRRVEERIGVKPCITDCLEGLSILYDMHQSEYHLKSSILSVLSCLILKPSPGDLNALQYLVVDQPNIPKDEVQHIFDVIFAEEIK
notes: OPENER (OPNR), Arabidopsis thaliana, AT5G43822; printed molecular weight 23 kDa; also called OPENER; source: E. coli BL21(DE3), co-expressed with 6xHis-OAP1 and OAP2 from pACYCDuet-1, co-purified (Ni-NTA, Superdex200)

Source: publication PMC12332008, “Ribosome biogenesis in plants requires the nuclear envelope and mitochondria localized OPENER complex” (Nature Communications, 2025)
